Common to all, as to type: in vivo
Series [1] has as its system Diamondback moth (Plutella xylostella). In words: Diet-surface overlay (DSO) bioassay. The note with it: Table 41, individuals of n = 16 after 7 days. As for the experimental part:
(§1) Diet-surface overlay bioassays are conducted with artificial diet mixes without antibiotics in 1.5 cm^2 cell bioassay trays(s). Artificial diets are commercially available from Southland Products Inc. Diets were prepared by dispersing 0.5 mL of molten diet to each 1.5 cm^2 cell. After solidification, 0.1 mL enzyme treatments were dispersed on top of diet in each cell and the tray was gently rocked in an orbital shaker to spread the liquid uniformly over the diet surface. Trays were placed under clean airflow until the surface of each cell was uniformly dried. One or two 16-cell sections were used per treatment (the number in larvae treated was 16 or 32).
(§2) One healthy first instar larva was placed into each treatment cell, each 16-cell section was covered with a re-sealable lid and incubated at 27° C. and light-dark period of 16:8 hrs. After 7 days, and according to the species, the number of individuals in the following developmental categories was recorded.
(§3) Diamondback moth (Plutella xylostella): Dead Larva (lack of movement), Larva Stage I (≤50% relative size), Larva Stage II (100% relative size, full size), Early Pupa (light green color), Late Pupa (light-dark brown color), and Adult.
(§4) Negative/untreated controls were treated with filtered water and positive controls were treated with lethal doses of Bacillus thuringiensis subsp. Kurstaki (Btk) spores at 1000 ppm.

For series [2], the system named is Black gloss snails (Zonitoides nitidus). Description: Antifeedant and molluscicide bioassay (artificial diet): consumption, survival, weight gain. The note with it: Table 63; n = 12, 7 days; control diet 2.50. As for the experimental part:
Two-week old garden snails (Cornu aspersum) and full-size black gloss snails (Zonitoides nitidus) were maintained in a semi-darkened tank at 68-70° F. at high humidity, provided with a wet sponge in a petri dish. Snails were transferred to fresh tank every 2-3 days, and they were feed ad libitum with cucumber slices supplemented with calcium carbonate tablets. Individuals were reared in the laboratory for at least a week to fully acclimate to laboratory conditions prior to testing. The individuals ranged between 3 weeks to 2 months old at the time of bioassay.
Filter-sterilized recombinant enzymes including proteases and lipases were prepared as indicated in Example 25. Corresponding controls (e.g., buffer, fermentation of non-recombinant strain, water) were be prepared accordingly. […]
12 snails were randomly assigned to each treatment, labeled with permanent marker on the top of the shell for identification, and their weight (mg) was recorded before treatment. […] At the time of treatment replacement, treatment consumption, weight, and mortality were recorded.
Alkaline Protease and Keratinase and Lipases from Pseudomonas fluorescens (Pf,), were prepared as described above and their antifeedant and molluscicidal effects were tested. […] The units (U) of enzyme activity was determined as the amount of enzyme required to breakdown 1 μM of substrate per minute. […]

In series [3] the test system is Btk resistant Diamondback moth. In words: Diet-surface overlay (DSO) bioassay. As for the experimental part: as §1, §2, §3, §4
However, both neutral proteases reduced the number of individuals reaching adult stage.

The subject of series [4] is Fall armyworm (Spodoptera frugiperda). In words: Diet-surface overlay (DSO) bioassay. The protocol: as §1, §2, §4
Setting [5] is: Table 42, Btk resistant, n = 32, doses as E69, water 0.
Setting [6] is: Table 43, n = 32, Keratinase 260 U/mL diet, water 0.

B1: Keratinase: protease resuspended in water at 0.25 g/mL (protein, listed as Bacillus licheniformis)
chain: MMRKKSFWLGMLTAFMLVFTMAFSDSASAAQPAKNVEKDYIVGFKSGVKTASVKKDIIKESGGKVDKQFRIINAAKAKLDKEALKEVKNDPDVAYVEEDHVAHALAQTVPYGIPLIKADKVQAQGFKGANVKVAVLDTGIQASHPDLNVVGGASFVAGEAYNTDGNGHGTHVAGTVAALDNTTGVLGVAPSVSLYAVKVLNSSGSGSYSGIVSGIEWATTNGMDVINMSLGGASGSTAMKQAVDNAYARGVVVVAAAGNSGSSGNTNTIGYPAKYDSVIAVGAVDSNSNRASFSSVGAELEVMAPGAGVYSTYPTNTYATLNGTSMVSPHVAGAAALILSKHPNLSASQVRNRLSSTATYLGSSFYYGKGLINVEAAAQ
modifications: Protease _ keratinase
notes: protease resuspended in water at 0.25 g/mL
On to B1, for which the “Dead Larva” value in series [1] (U/mL diet: SEQ 127 0.206, Acid 2.5, Alkaline 190, Neutral 20, Keratinase 26, Btk spores 1000 ppm, water 0) is given as 1; in series [3] (Table 42, Btk resistant strain, individuals of n = 32 after 7 days, U/mL diet: SEQ 127 2, Neutral 200, Keratinase 260, water 1) it was 19; in series [4] (Table 43, individuals of n = 32 after 7 days, Keratinase 260 U/mL diet, water 2), 32. Moreover, the “Larva Stage I” value is reported as 0 in series [1] (doses as E63, water 0); 11 in series [3] (setting [5]); 0 in series [4] (setting [6]). Moreover, the “Larva Stage II” value in series [1] (doses as E63, water 0) turned out to be 0; in series [3] (setting [5]), 2; in series [4] (setting [6]) it was 0. The “Early Pupa” value in series [1] (doses as E63, water 3) was determined as 11; in series [3] (Table 42, Btk resistant, n = 32, doses as E69, water 1), 0. In addition, the “Late Pupa” value in series [1] (doses as E63, water 3) turned out to be 4; in series [3] (Table 42, Btk resistant, n = 32, doses as E69, water 22), 0. Also, the Adult in series [1] (doses as E63, water 10) is given as 0; in series [3] (Table 42, Btk resistant, n = 32, doses as E69, water 8) it was 0. Besides, the Diet consumption in series [2] was determined as 0.70 g. Further, in series [3] (text to Table 42, 10× higher protease activity rate), the mortality result was “more than 50%”. Also, in series [3] (text to Tables 42, 45, 47), the “effect on Btk resistant Diamondback moth larvae, in words” value is listed as “strong stunting of survival larvae”. The “Larva Stage III” value in series [4] (setting [6]) was found to be 0. The “Larva Stage IV” value in series [4] (Table 43, n = 32, Keratinase 260 U/mL diet, water 30) was found to be 0. Moreover, the “effect on Fall armyworm larvae, in words” value in series [4] (text to Tables 43, 46, 48, 50) was “lethal”.

The record behind these values is patent US20240324599A1, “PESTICIDAL ENZYMES FOR USE ON NEMATODES, INSECTS, AND MOLLUSKS” (priority 2023, published 2024).
